The source of these data is paper PMC8018910.

As a reminder, the Kd is a measure of binding affinity in units of concentration.

Assay [1] concerns the target Human IL-18 (human) (UniProt Q14116). As to conditions: cited from earlier work.
For assay [2] the target is unchanged.

Sequence of Human IL-18 (human) (Q14116 37-193): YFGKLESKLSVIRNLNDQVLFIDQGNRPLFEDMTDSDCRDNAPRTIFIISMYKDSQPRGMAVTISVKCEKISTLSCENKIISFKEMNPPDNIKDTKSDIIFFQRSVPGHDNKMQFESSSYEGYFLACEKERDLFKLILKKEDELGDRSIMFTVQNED
Sequence of Clinical-grade recombinant human IL-18BP (O95998 31-194): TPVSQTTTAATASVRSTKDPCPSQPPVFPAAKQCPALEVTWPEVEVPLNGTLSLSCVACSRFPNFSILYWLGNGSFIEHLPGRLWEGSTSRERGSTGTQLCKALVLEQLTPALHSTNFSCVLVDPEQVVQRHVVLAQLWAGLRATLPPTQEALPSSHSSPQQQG
Sequence of IL-18BP (O95998 31-194): as above

Regarding IL-18BP (from UniProt O95998), the dissociation constant (Kd) with Human IL-18 (human) [1] is 500 pM. For the substance “Clinical-grade recombinant human IL-18BP (from UniProt O95998 31-194) (natural protein)”, in the assay with Human IL-18 (human) [2], the reduction of IL-12/IL-18-induced IFNγ production in human PBMC cultures by IL-18BP (24 h) was determined as 95% and the reduction of IL-12/IL-18-induced IL-6 release in human PBMC cultures by IL-18BP (24 h) amounted to 85%.
